Article PMC4995099, “Drosophila Nanos acts as a molecular clamp that modulates the RNA-binding and repression activities of Pumilio”

Columns and labels:
[1] = biological target: T1, Drosophila Pum RNA-binding domain (amino acids 1091–1426), crystallisation construct (Drosophila melanogaster) (UniProt P25822)
T1 sequence: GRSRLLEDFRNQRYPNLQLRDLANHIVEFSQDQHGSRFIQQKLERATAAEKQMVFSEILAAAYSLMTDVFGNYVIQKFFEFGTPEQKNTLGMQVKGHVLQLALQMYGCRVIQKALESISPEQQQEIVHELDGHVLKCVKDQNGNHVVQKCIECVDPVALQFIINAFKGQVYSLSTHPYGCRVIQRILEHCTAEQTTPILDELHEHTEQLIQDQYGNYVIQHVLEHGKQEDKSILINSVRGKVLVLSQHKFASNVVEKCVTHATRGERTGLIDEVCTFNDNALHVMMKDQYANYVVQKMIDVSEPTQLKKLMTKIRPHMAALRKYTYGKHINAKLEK

[2] = biological target: T2, Pum RNA-binding domain (aa1091-1426) with N-terminal triple FLAG tag, EMSA construct (Drosophila melanogaster, UniProt P25822-1 1091-1426); assay: EMSA, Nos binding to Pum–hb NRE2 RNA complex (100 nM Pum)
T2 chain: T1 sequence

Pum PUM-HD WT (EMSA) [3] = biological target: T3, Pum PUM-HD WT (EMSA) (UniProt P25822 1091-1426); assay: EMSA; EMSA: 50 mM Tris-HCl pH 7.6, 150 mM NaCl, 2 mM DTT, 2 ug/mL BSA, 0.01% Igepal CA-630, 0.02% bromophenol blue, 20% glycerol, 3 h at 4 C; 1 nM Cy5 RNA or 0.3 nM 32P RNA; conditions: protein: recombinant; tags: N-terminal 3xFLAG; Halo-tag removed by TEV
T3 sequence: T1 sequence

[4] = biological target: T4, Pum RNA-binding domain (crystal);Nos ZF domain (crystal) (Drosophila melanogaster?;Drosophila …, UniProt P25822;P25724 1091-1426;289-401, |); assay: X-ray crystallography; 4.0 A; Zn2+; EMSA: 50 mM Tris-HCl pH 7.6, 150 mM NaCl, 2 mM DTT, 2 ug/mL BSA, 0.01% Igepal CA-630, 0.02% bromophenol blue, 20% glycerol, 3 h at 4 C; 1 nM Cy5 RNA or 0.3 nM 32P RNA; conditions: protein: recombinant;recombinant; tags: His6-SUMO removed by Ulp1;His6-SUMO removed by Ulp1; copies: 1;1
T4 sequence 1: T1 sequence
T4 sequence 2: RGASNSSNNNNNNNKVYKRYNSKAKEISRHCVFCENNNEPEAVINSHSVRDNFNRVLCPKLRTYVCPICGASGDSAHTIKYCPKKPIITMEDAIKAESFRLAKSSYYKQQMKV

Pum PUM-HD WT (EMSA) [5] = biological target: T3, Pum PUM-HD WT (EMSA); assay: EMSA; no stable complex, Pum up to 1 uM; EMSA: 50 mM Tris-HCl pH 7.6, 150 mM NaCl, 2 mM DTT, 2 ug/mL BSA, 0.01% Igepal CA-630, 0.02% bromophenol blue, 20% glycerol, 3 h at 4 C; 1 nM Cy5 RNA or 0.3 nM 32P RNA; conditions: protein: recombinant; tags: N-terminal 3xFLAG; Halo-tag removed by TEV; label: 5' 32P
[6] = biological target: T5, Pum PUM-HD WT (EMSA);Nos ZC WT (EMSA) (Drosophila melanogaster?;Drosophila …, UniProt P25822;P25724 1091-1426;289-401, |); assay: EMSA; Pum titrated, 1 uM Nos ZC constant; EMSA: 50 mM Tris-HCl pH 7.6, 150 mM NaCl, 2 mM DTT, 2 ug/mL BSA, 0.01% Igepal CA-630, 0.02% bromophenol blue, 20% glycerol, 3 h at 4 C; 1 nM Cy5 RNA or 0.3 nM 32P RNA; conditions: protein: recombinant;recombinant, tags: N-terminal 3xFLAG, Halo-tag removed by TEV;C-terminal V5, copies: 1;1, label: 5' 32P
T5 sequence 1: T1 sequence
T5 sequence 2: T4 sequence 2

Pum PUM-HD WT (EMSA) [7] = biological target: T3, Pum PUM-HD WT (EMSA); assay: EMSA; no stable binary complex; EMSA: 50 mM Tris-HCl pH 7.6, 150 mM NaCl, 2 mM DTT, 2 ug/mL BSA, 0.01% Igepal CA-630, 0.02% bromophenol blue, 20% glycerol, 3 h at 4 C; 1 nM Cy5 RNA or 0.3 nM 32P RNA; conditions: protein: recombinant; tags: N-terminal 3xFLAG; Halo-tag removed by TEV; label: 5' 32P
[8] = biological target: T5, Pum PUM-HD WT (EMSA);Nos ZC WT (EMSA); assay: EMSA; 1 uM Nos ZC; Kd only in figure; EMSA: 50 mM Tris-HCl pH 7.6, 150 mM NaCl, 2 mM DTT, 2 ug/mL BSA, 0.01% Igepal CA-630, 0.02% bromophenol blue, 20% glycerol, 3 h at 4 C; 1 nM Cy5 RNA or 0.3 nM 32P RNA; conditions: protein: recombinant;recombinant, tags: N-terminal 3xFLAG, Halo-tag removed by TEV;C-terminal V5, copies: 1;1, label: 5' 32P
Pum PUM-HD WT (EMSA) [9] = biological target: T3, Pum PUM-HD WT (EMSA); assay: EMSA; no stable binding; EMSA: 50 mM Tris-HCl pH 7.6, 150 mM NaCl, 2 mM DTT, 2 ug/mL BSA, 0.01% Igepal CA-630, 0.02% bromophenol blue, 20% glycerol, 3 h at 4 C; 1 nM Cy5 RNA or 0.3 nM 32P RNA; conditions: protein: recombinant; tags: N-terminal 3xFLAG; Halo-tag removed by TEV; label: 5' 32P
Pum PUM-HD WT (EMSA) [10] = biological target: T3, Pum PUM-HD WT (EMSA); assay: EMSA; N/D; EMSA: 50 mM Tris-HCl pH 7.6, 150 mM NaCl, 2 mM DTT, 2 ug/mL BSA, 0.01% Igepal CA-630, 0.02% bromophenol blue, 20% glycerol, 3 h at 4 C; 1 nM Cy5 RNA or 0.3 nM 32P RNA; conditions: protein: recombinant; tags: N-terminal 3xFLAG; Halo-tag removed by TEV; label: 5' 32P
[11] = biological target: T5, Pum PUM-HD WT (EMSA);Nos ZC WT (EMSA); assay: EMSA; 1 uM Nos ZC; N/D; EMSA: 50 mM Tris-HCl pH 7.6, 150 mM NaCl, 2 mM DTT, 2 ug/mL BSA, 0.01% Igepal CA-630, 0.02% bromophenol blue, 20% glycerol, 3 h at 4 C; 1 nM Cy5 RNA or 0.3 nM 32P RNA; conditions: protein: recombinant;recombinant, tags: N-terminal 3xFLAG, Halo-tag removed by TEV;C-terminal V5, copies: 1;1, label: 5' 32P
[12] = biological target: T6, Pum RNA-binding domain (crystal) (UniProt P25822 1091-1426); assay: X-ray crystallography; 1.14 A; EMSA: 50 mM Tris-HCl pH 7.6, 150 mM NaCl, 2 mM DTT, 2 ug/mL BSA, 0.01% Igepal CA-630, 0.02% bromophenol blue, 20% glycerol, 3 h at 4 C; 1 nM Cy5 RNA or 0.3 nM 32P RNA; conditions: protein: recombinant; tags: His6-SUMO removed by Ulp1
T6 sequence: T1 sequence

With “Halo-Nos I376A (full-length) (natural protein)” the percent repression of the RnLuc WT hb 3´UTR reporter in D.mel-2 cells (endogenous Pum), against Halo-tag alone [1] was 46%.

“Halo-Nos M378A (full-length) (natural protein)” was tested, and the percent repression of the RnLuc WT hb 3´UTR reporter in D.mel-2 cells (endogenous Pum), against Halo-tag alone [1] was 29%.

Molecule “Halo-Nos I382A (full-length) (natural protein)” has a percent repression of the RnLuc WT hb 3´UTR reporter in D.mel-2 cells (endogenous Pum), against Halo-tag alone [1] of 60%.

For “Halo-Nos NZ (aa1-373) (domain or fragment)”, the percent repression of the RnLuc WT hb 3´UTR reporter in D.mel-2 cells (endogenous Pum), against Halo-tag alone [1] was 14%.

B1: Nos ZC (aa289-401) with C-terminal V5 epitope, EMSA construct (domain or fragment)
chain: T4 sequence 2
modifications: two Zn2+ bound by the CCHC zinc fingers; C-terminal V5 epitope omitted
For B1, the Kd [2] was 4.6 nM.

B2: hb NRE2 -2C RNA (ssRNA)
RNA: AACUUGUACAUAAGCC
B2: binds (Pum PUM-HD WT (EMSA) [3]).

B3: CycB NRE RNA 14-nt (crystal) (ssRNA)
RNA: UAUUUGUAAUUUAU
B3: binds [4].

B4: CycB NRE RNA (EMSA) (ssRNA)
RNA: UAUUUGUAAUUUAUAUC
In the case of B4, the binding result (Pum PUM-HD WT (EMSA) [5]) is reported as “no binding” and the Kd [6] is reported as 12 nM.

B5: Halo-Nos Δ383–393 (aa1-382 + 394–401) (natural protein)
chain: MFRSNLEGSGAAADNFSAFHARGGLNILGLQDMYLDTSGANSSATLSPPITPVTPDPSTSAQSTHFPFLADSAATANSLLMQRQYHYHLLLQQQQQLAMAQHQLALAASAAAASASHQQTDEIARSLKIFAQVTTGAAENAAGSMQDVMQEFATNGYASDDLGRMSYGSAPPQVQMPPQQQHQQQQGLHLPLGRNPAQLQTNGGNLMPIPLATHWLNNYREHLNNVWRNMSYIPAAPNTMGLQAQTAATVSTNLGVGMGLGLPVQGEQLRGASNSSNNNNNNNKVYKRYNSKAKEISRHCVFCENNNEPEAVINSHSVRDNFNRVLCPKLRTYVCPICGASGDSAHTIKYCPKKPIITMEDAIYYKQQMKV
Work on B5 yielded a percent repression of the RnLuc WT hb 3´UTR reporter in D.mel-2 cells (endogenous Pum), against Halo-tag alone [1] of 43%.

B6: hb NRE2 -1C RNA (ssRNA)
RNA: AAACUGUACAUAAGCC
B6: binds (Pum PUM-HD WT (EMSA) [3]).

B7: hb NRE1 RNA (ssRNA)
RNA: GAAUUGUAUAUAUUCG
B7: no binding (Pum PUM-HD WT (EMSA) [7]); binds [8].

B8: hb NRE2 +3G RNA (ssRNA)
RNA: AAAUUGGACAUAAGCC
B8 was tested, and the binding result (Pum PUM-HD WT (EMSA) [9]) was “no binding” and the Kd [6] was 59.9 nM.

B9: Halo-tagged, full-length Nos protein (NZC) (natural protein)
chain: MFRSNLEGSGAAADNFSAFHARGGLNILGLQDMYLDTSGANSSATLSPPITPVTPDPSTSAQSTHFPFLADSAATANSLLMQRQYHYHLLLQQQQQLAMAQHQLALAASAAAASASHQQTDEIARSLKIFAQVTTGAAENAAGSMQDVMQEFATNGYASDDLGRMSYGSAPPQVQMPPQQQHQQQQGLHLPLGRNPAQLQTNGGNLMPIPLATHWLNNYREHLNNVWRNMSYIPAAPNTMGLQAQTAATVSTNLGVGMGLGLPVQGEQLRGASNSSNNNNNNNKVYKRYNSKAKEISRHCVFCENNNEPEAVINSHSVRDNFNRVLCPKLRTYVCPICGASGDSAHTIKYCPKKPIITMEDAIKAESFRLAKSSYYKQQMKV
With B9 the percent repression of the RnLuc WT hb 3´UTR reporter in D.mel-2 cells (endogenous Pum), against Halo-tag alone [1] was 70%.

B10: hb NRE2 ACA RNA (ssRNA)
RNA: AAAUACAACAUAAGCC
B10: no binding (Pum PUM-HD WT (EMSA) [10]); no binding [11].

B11: bcd NRE RNA (ssRNA)
RNA: UGAUUGUAGAUAUCUA
B11: no binding (Pum PUM-HD WT (EMSA) [7]); binds [8].

B12: Halo-Nos Δ376–382 (aa1-375 + 383–401) (natural protein)
chain: MFRSNLEGSGAAADNFSAFHARGGLNILGLQDMYLDTSGANSSATLSPPITPVTPDPSTSAQSTHFPFLADSAATANSLLMQRQYHYHLLLQQQQQLAMAQHQLALAASAAAASASHQQTDEIARSLKIFAQVTTGAAENAAGSMQDVMQEFATNGYASDDLGRMSYGSAPPQVQMPPQQQHQQQQGLHLPLGRNPAQLQTNGGNLMPIPLATHWLNNYREHLNNVWRNMSYIPAAPNTMGLQAQTAATVSTNLGVGMGLGLPVQGEQLRGASNSSNNNNNNNKVYKRYNSKAKEISRHCVFCENNNEPEAVINSHSVRDNFNRVLCPKLRTYVCPICGASGDSAHTIKYCPKKPIKAESFRLAKSSYYKQQMKV
B12 showed a percent repression of the RnLuc WT hb 3´UTR reporter in D.mel-2 cells (endogenous Pum), against Halo-tag alone [1] of 27%.

B13: hb PRE2 RNA 8-nt (ssRNA)
RNA: UGUACAUA
B13: binds [12].
